41 sequences from the nanobody polyreactivity screen of Harvey et al. (2022) can be followed below.

A short description of the series: yeast display, Sf9 membrane polyspecificity reagent, FACS + sequencing; frameworks hold sequencing errors. In outline:
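After 36–48 hours of galactose induction, yeast (Saccharomyces cerevisiae BJ5465) displaying a synthetic nanobody library were stained at 4 °C for 1 hour with 10% biotinylated, detergent-solubilized Sf9 membrane reagent. Streptavidin microbeads enriched the stained cells before FACS sorting into low and high (top ~1%) gates on anti-HA and streptavidin fluorescence. Each clone's polyreactivity label reflects its gate of origin.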
Turning to “QVQLVESGGGLVQAGGSLRLSCAASGFTFYHNAMGWYRHAPGKERELVATITARGGRTYYADSVKGRFTISRDNAKNTVYLQMISLKPEDTAVYYCNVKASRGYTYEYDYWGQGTQVTVSS”, the “polyreactivity (PSR sort gate)” value was “high polyreactivity”.
For the sequence “QVQLVESGGGLVQAGGSLRLSCAASGFTFYIYAMGWYRQAPGKERELVAAITTSGDSTYYADSVKGRFTISRDNAKNTVYLQMNSLKPEDTAVYYCAAEYWYTYSWGQGTQVTVLS”, the “polyreactivity (PSR sort gate)” value is listed as “low polyreactivity”.
The same measure for “QVQLVESGGGLVQAGGSLRLSCAASGFTFYKNAMGWYRQAPGKERELVAAISRSGGSTYYADSVKGRFTISRDNAKNTVYLKMNSLKPEDTAVYYWAKGYCNFYRSDYWGQGTHVTVSS”: “high polyreactivity”.
As for “QVQLVESGGGLVQAGGSLRLSCAASGFTFYKYAMGWYRQAPGKEREFVASITVRTGSTSYADSVKGRFTISRDNAKNTVYLQMNSLKPEDTAVYYCAAETYYYSWYYLGYTYDYWGHGTQVTVSS”, the “polyreactivity (PSR sort gate)” value was “high polyreactivity”.
With “QVQLVESGGGLVQAGGSLRLSCAASGFTFYKYTMGWYRQAPGKERELVAAISARGGSTYYADSVKGRFTISRDNAKNTVYLQMNSLKPEDTAVYYCAADYWRTYGLGYDYWGQGTQVTVSS”, the “polyreactivity (PSR sort gate)” value was “high polyreactivity”.
Regarding “QVQLVESGGGLVQAGGSLRLSCAASGFTFYKYVMGWYRQAPGKERELVAAITTSGGSTYFADSVKGRFTISRDNAKNSVYLEMNSLKPEDTAVYYCNARSLHTSEGDYWGQGSQVTVSS”, the “polyreactivity (PSR sort gate)” value is “low polyreactivity”.
Consider “QVQLVESGGGLVQAGGSLRLSCAASGFTFYLNAMGWYRQAPGKERELVAAISYSDGSTYYADSVKGRFTISRDNAKNTVYLQMNRLKPEDTAVYFCAADTTDPGGAYQLMDYWGQGTQVTVSS”, for which the “polyreactivity (PSR sort gate)” value is given as “high polyreactivity”.
Consider “QVQLVESGGGLVQAGGSLRLSCAASGFTFYLYAMGWYRHAPGKERELVAAISVDGGSTYYADSVKGRFTISRDNAKNTVYLQMNSLKPEDTAVYYCAARLYGRYRYDYWGQGTQVTVSS”, for which the “polyreactivity (PSR sort gate)” value was “low polyreactivity”.
Turning to “QVQLVESGGGLVQAGGSLRLSCAASGFTFYLYTMGWYRQAPGKERELVAAISWRGGGTYYADSVKGRFTISRDNAKNTVYLQMNSLKPEDTAVYYCATVRTYARNDYWGQGTQVTVSS”, the “polyreactivity (PSR sort gate)” value is “high polyreactivity”.
As for “QVQLVESGGGLVQAGGSLRLSCAASGFTFYLYTMGWYRQAPGNESELVATITSDGGTNYADSVKGRFTISRDNAKNTVYLQMNSLKPEDTAVYYFNAASRRGSRKQAKYDYWGQGTQVTVSS”, the “polyreactivity (PSR sort gate)” value is on record as “low polyreactivity”.
Consider “QVQLVESGGGLVQAGGSLRLSCAASGFTFYPYAMGWYRQAPGKERELVASISSRGGSRTYYADSVKGRFTISRVNEKNTVYLQMNSLKTEDSAVYYCAATYVGLYRGYFTLTYYYWGQGTPVTVSS”, for which the “polyreactivity (PSR sort gate)” value was “high polyreactivity”.
As to “QVQLVESGGGLVQAGGSLRLSCAASGFTFYPYTMGWYRQAPGKERELVADITYDSTYYADSVKGRFTISRDNAKNTVYLQMNSLKPEDTAVYYCNATGYSVSRSAYWYGWYDYWGQGTQVTVSS”, the “polyreactivity (PSR sort gate)” value is listed as “low polyreactivity”.
On to “QVQLVESGGGLVQAGGSLRLSCAASGFTFYQNAMGWYRQAPGKEREFVAAISRRGGSTYYADSVKGRFTSSRDNAKNTVYLQMNSLKPEDTAVYYCAADYKRKSDGDYWGQGTQVTVSS”, for which the “polyreactivity (PSR sort gate)” value is “high polyreactivity”.
As for “QVQLVESGGGLVQAGGSLRLSCAASGFTFYQYAMGWYRQAPGKEREFVAAISSSGSSTYYADSVKGRFTISRDNAKNTVYLQMNSLKPEDTAVYYCNAYFRNWRYSPGGYWGQGTQVTVSS”, the “polyreactivity (PSR sort gate)” value is “high polyreactivity”.
As for “QVQLVESGGGLVQAGGSLRLSCAASGFTFYRNAMGWSRQAPGKERELVARIRGTGGRTYYADSVKGRFTISRDNAKNTVYLQMNSLKPEDSAVYYCARRYHYSLYGYWGQGTQVTVSS”, the “polyreactivity (PSR sort gate)” value is listed as “high polyreactivity”.
In the case of “QVQLVESGGGLVQAGGSLRLSCAASGFTFYRNAMGWYRKAPGKERELVAAISWSGDSTYYADSVKGRFTISRDNAKNTVYLQMNSLKPEDTAVYYCAKSRYTALTNHWSHDYWGQGTQVTVSS”, the “polyreactivity (PSR sort gate)” value was “low polyreactivity”.
As for “QVQLVESGGGLVQAGGSLRLSCAASGFTFYRNAMGWYRQAPGKERELVAGISKRGGSTYYADSVKGRFTISRDNAKNTVYLLMNSLKPEDTAVYYCARGGYPGSAEYDYWGQGTQVTVSS”, the “polyreactivity (PSR sort gate)” value is “high polyreactivity”.
The same measure for “QVQLVESGGGLVQAGGSLRLSCAASGFTFYRNAMGWYRQAPGKERELVARISRGGSTNYADSVKGRFTISRDNAKNTVYLQMNSLKPEDTAVYYCNRDYYVGRYDYWGQGTQVTVSS”: “high polyreactivity”.
With “QVQLVESGGGLVQAGGSLRLSCAASGFTFYRNTMGWYRQAPGKERELVATITFSGTRTYYADSVKGRFTISRDNAKNTVYLQMNSLKPEDTAVYYCAADRPRRTKWGGGGYYWGQGTQVTVSS”, the “polyreactivity (PSR sort gate)” value is “high polyreactivity”.
On to “QVQLVESGGGLVQAGGSLRLSCAASGFTFYRYALGWYRQAPGKERELVAAISQRGGTTYYADSVKGRFTISRDNAKNTVYLQMNSLKPEDTAVYYCAKDRYYYPGNYWGQGTQVTVSS”, for which the “polyreactivity (PSR sort gate)” value is “high polyreactivity”.
The same measure for “QVQLVESGGGLVQAGGSLRLSCAASGFTFYRYAMGWYRQAPGKERELVAAISRSGGSTSYADSVKGRFTISRDNAKNTLYLQMNSLTPEDTEVYYCATRNWYSLKDYYYWGQGTQVTVSS”: “high polyreactivity”.
For the sequence “QVQLVESGGGLVQAGGSLRLSCAASGFTFYRYAMGWYRQAPGKERELVAAITASGGSTYYADSVKGRFTISRDNAKNTVYLQMNSLKPEDTAVYYCAKGWVSYWRYKNEYWGQGTQVTVSS”, the “polyreactivity (PSR sort gate)” value is recorded as “high polyreactivity”.
“QVQLVESGGGLVQAGGSLRLSCAASGFTFYRYAMGWYRQAPGKERELVAAITSAGSTYYADSVKGRFTISRDNAKNTVYLQMNSLKPEDTAVSYCNAVGYFSYRDRDSEYYYNYGSWGQGTQVTVSS”: the “polyreactivity (PSR sort gate)” value is on record as “low polyreactivity”.
Regarding “QVQLVESGGGLVQAGGSLRLSCAASGFTFYRYAMGWYRQAPGKERELVASISRNGGSTYYADTVKGRFTISRDTEKNTVYFLMNSLKPEDTAVYYCNTAFYPPTNFYWGQGTQVTVSS”, the “polyreactivity (PSR sort gate)” value was “high polyreactivity”.
Consider “QVQLVESGGGLVQAGGSLRLSCAASGFTFYRYAMGWYRQAPGKERELVATISASGGSTYYADSVKGRFTISRDNAKNTVYLQMNSVKPEDTAVYYFAVRYKSWYGFNYWGQGTQVTVSS”, for which the “polyreactivity (PSR sort gate)” value is recorded as “high polyreactivity”.
The same measure for “QVQLVESGGGLVQAGGSLRLSCAASGFTFYRYAMGWYRQAPGKERELVAVITGRGGTTYYADSVKGRFTISRDNAKNTVYLQMNSMKPEDTAVYYCAVQTHRSLDPYDYWGQGTQVTVSS”: “high polyreactivity”.
Regarding “QVQLVESGGGLVQAGGSLRLSCAASGFTFYRYDMGWYRQAPGQERELVAAITNNGGNTYYADSVKGRFTISRDNAKNTVYLQMNSLKPEDTAVYYCAARTWGRYDYWGQGTQVTVSS”, the “polyreactivity (PSR sort gate)” value is given as “high polyreactivity”.
As for “QVQLVESGGGLVQAGGSLRLSCAASGFTFYRYPMGWYRQAPGKETELVAAITKRGDRTYYADSVKGRFRISRDNAKNTVFLQMSSLKPEDTAVYFCASDPYYSVSYWLAYDYWGQGTQVTVSS”, the “polyreactivity (PSR sort gate)” value is “high polyreactivity”.
The result for “QVQLVESGGGLVQAGGSLRLSCAASGFTFYRYTMGWYRQAPGKERELFAAISARGVSTYYADSVKGRFTISRDNAKNTVYLQMNSLKPEDTAVYYCYVSRYDTWGQGTQVTVTS” reads “high polyreactivity”; that for “QVQLVESGGGLVQAGGSLRLSCAASGFTFYRYVMGWYRQAPGKERELVAAITGGGRTYYADSVKGRFTISRDNAKNTVYLQMNSLKPEDTAVYYCNKAVPAWGLYDYWGQGTQVTVSS”, “low polyreactivity”.
Turning to “QVQLVESGGGLVQAGGSLRLSCAASGFTFYSNSMGWYRQAPGKERELVAAISSGGGTTYYADSVKGRFTISRDNAKNTVYLQMNSLKPEYTAVYYCAAGLSFFRSYSGFYYWGQGTQVTVSS”, the “polyreactivity (PSR sort gate)” value is recorded as “low polyreactivity”.
Take “QVQLVESGGGLVQAGGSLRLSCAASGFTFYSYAMGWYRQAPGKERELVAAISWSGTRTYYADSVKGRFTISRDIAKNTVYLQMNSLKPEDTAVYYCAARGYRYGYGYWGQGTQVTVSS”: the “polyreactivity (PSR sort gate)” value was “high polyreactivity”.
For the sequence “QVQLVESGGGLVQAGGSLRLSCAASGFTFYSYAMGWYRQAPGKERELVATITSAGSTNYADSVKGRFTISRDNAKNTVYLQMNSLKPEDTAVYYCAAVYYYIYYWGQVTQVTVSS”, the “polyreactivity (PSR sort gate)” value is given as “high polyreactivity”.
The result for “QVQLVESGGGLVQAGGSLRLSCAASGFTFYSYDMGWYRQAPGKERELVAAITWSGGSTYYADSVKGRFTISRDNAKNTVYLQMNSLKPEDTAVYYCAAELFPLQHFWVAYATRRYDYWGQGTQVTVSS” reads “low polyreactivity”; that for “QVQLVESGGGLVQAGGSLRLSCAASGFTFYTNAMGWYRPAPGKEREFVAAISFSGGTYYADSVKGRFTISRDNAKNTVYLQMNSLKPEDTAVYYCNARYPRYYRGVIQYDYWGQGTQVTVSS”, “low polyreactivity”.
With “QVQLVESGGGLVQAGGSLRLSCAASGFTFYTNAMGWYRPAPWKERELVAAIYARTGRTYYADSVKGRFTISRDNAKNTVFLQMNSLKPEDTAVYYCAKDRQSSSTDYGYWGQGTQVTVSS”, the “polyreactivity (PSR sort gate)” value is reported as “high polyreactivity”.
In the case of “QVQLVESGGGLVQAGGSLRLSCAASGFTFYTYAMRLYRQAPGKERELVAAISKSGGSTYYADSVKGRFTISRDNAKNTVYLQMNSLKPEDTAVYYCAAVVVYFDEYDYWGQGTQVTVSS”, the “polyreactivity (PSR sort gate)” value is given as “low polyreactivity”.
The same measure for “QVQLVESGGGLVQAGGSLRLSCAASGFTFYVNAMGWYRQAPGKERELVAAISSRGGSTYYADSVKGRFTISRDNAKNTVYLQMNSLKPEDTAVYYCATAKSYGEDSWGQGTQVTVSS”: “high polyreactivity”.
As to “QVQLVESGGGLVQAGGSLRLSCAASGFTFYVNAMGWYRQAPGKERELVAAISSSGTRTYYADSVKGRFTISRDNAKNTVYLQMNSLKPEDTAVYYCAARGQAYSGDRMYYWGQGTLVTVSS”, the “polyreactivity (PSR sort gate)” value is reported as “high polyreactivity”.
Regarding “QVQLVESGGGLVQAGGSLRLSCAASGFTFYVNAMGWYRQAPGKERELVAAISSSGTRTYYADSVKGRFTISRDNAKNTVYLQMNSLKPEDTAVYYCAARGQAYSGDRMYYWGQGTQVTVSS”, the “polyreactivity (PSR sort gate)” value is reported as “high polyreactivity”.
For the sequence “QVQLVESGGGLVQAGGSLRLSCAASGFTFYWYAMGWYRQAPGKEREFVAAIDQSGGSTYYADSVKGRFTISRDNAKNTVYLQMNSLKPEDTAVYYCAKLYTIGYDYWGQGTQVTVSS”, the “polyreactivity (PSR sort gate)” value was “low polyreactivity”.
